Measured values taken from US10254283.

How the values were obtained:
[1] = tested on: positional scanning peptide library Y-A-X-X-X-X-X-S/T-X-X-X-X-A-G-K-K-biotin

## recombinant full-length MELK
[1]
  positional scanning peptide library screen, in vitro phosphorylation with 32P-ATP: an optimal substrate motif for MELK was identified having a strong selection for arginine at the -3 position relative to serine/threonine
Flag-eIF4B (S406A)
Chain of Flag-eIF4B (S406A) (chain, as listed by the source S406A): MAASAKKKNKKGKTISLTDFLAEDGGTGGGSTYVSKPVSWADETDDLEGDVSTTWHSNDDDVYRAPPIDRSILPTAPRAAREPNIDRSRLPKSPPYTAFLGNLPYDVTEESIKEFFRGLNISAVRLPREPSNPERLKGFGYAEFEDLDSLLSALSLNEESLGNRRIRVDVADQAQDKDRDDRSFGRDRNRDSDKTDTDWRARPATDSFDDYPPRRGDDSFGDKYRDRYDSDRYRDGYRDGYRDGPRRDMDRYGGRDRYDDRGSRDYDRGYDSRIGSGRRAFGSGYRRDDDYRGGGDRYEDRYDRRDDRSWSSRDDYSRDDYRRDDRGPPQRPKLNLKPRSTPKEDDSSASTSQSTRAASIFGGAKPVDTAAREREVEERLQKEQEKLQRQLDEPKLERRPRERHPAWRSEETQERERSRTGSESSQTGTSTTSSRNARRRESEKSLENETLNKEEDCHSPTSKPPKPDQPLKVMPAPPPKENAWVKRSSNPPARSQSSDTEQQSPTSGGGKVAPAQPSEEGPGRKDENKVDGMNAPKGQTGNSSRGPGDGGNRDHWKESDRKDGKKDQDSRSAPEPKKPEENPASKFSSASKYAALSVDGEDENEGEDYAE
  in vitro kinase assay, phosphorylation of eIF4B at S406 (immunoblot): This phosphorylation was abolished when wild type (wt) eIF4B was replaced with a mutant eIF4B (S406A)
Flag-eIF4B (wild type)
Chain of Flag-eIF4B (wild type) (chain, as listed by the source): as the sequence (chain, as listed by the source S406A) above, with A406S counted along it
  in vitro kinase assay, phosphorylation of eIF4B at Ser406 (immunoblot): Ser406, but not Ser422, of human eIF4B was readily phosphorylated by full-length MELK or the kinase domain of MELK
  in vitro kinase assay, phosphorylation of eIF4B at Ser422 (immunoblot): MELK does not phosphorylates eIF4B at S422 in vitro
